PMC2914677, “Characterisation of recombinant pyranose oxidase from the cultivated mycorrhizal basidiomycete Lyophyllum shimeji (hon-shimeji)” (Microbial Cell Factories, 2010)

Assays:
PcP2Ox = biological target: T1, PcP2Ox (Phanerodontia chrysosporium, UniProt Q6QWR1); experiment: absorbance at […] nm; assay type: biochemical; details: apparent; electron acceptor, 100 mM D-glucose, oxygen removed with nitrogen, pH 6.5, 30°C, 50 mM potassium phosphate; used as PF6 salt
T1 construct: gene p2ox; C-terminal His6 tag kept, pET21-a(+), E. coli BL21(DE3), IMAC
T1 sequence (Q6QWR1 whole entry): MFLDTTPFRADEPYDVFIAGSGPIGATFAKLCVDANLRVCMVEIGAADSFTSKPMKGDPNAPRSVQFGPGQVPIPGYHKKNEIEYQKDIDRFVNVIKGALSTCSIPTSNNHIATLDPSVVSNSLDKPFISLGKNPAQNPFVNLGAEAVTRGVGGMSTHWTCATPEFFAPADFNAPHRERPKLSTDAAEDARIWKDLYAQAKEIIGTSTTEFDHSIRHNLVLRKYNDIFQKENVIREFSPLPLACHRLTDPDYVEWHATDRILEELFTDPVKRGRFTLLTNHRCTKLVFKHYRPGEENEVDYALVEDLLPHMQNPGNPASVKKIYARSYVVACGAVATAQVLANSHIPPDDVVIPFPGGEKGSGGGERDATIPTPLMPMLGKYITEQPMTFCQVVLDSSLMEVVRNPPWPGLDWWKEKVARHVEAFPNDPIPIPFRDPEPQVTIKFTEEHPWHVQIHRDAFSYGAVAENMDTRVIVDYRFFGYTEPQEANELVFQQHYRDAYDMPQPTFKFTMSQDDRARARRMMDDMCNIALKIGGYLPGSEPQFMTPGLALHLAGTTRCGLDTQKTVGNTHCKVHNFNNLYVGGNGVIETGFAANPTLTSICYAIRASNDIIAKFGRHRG

TmP2Ox = biological target: T2, TmP2Ox (Trametes ochracea, UniProt Q7ZA32); experiment: absorbance at […] nm; assay type: biochemical; details: apparent; electron acceptor, 100 mM D-glucose, oxygen removed with nitrogen, pH 6.5, 30°C, 50 mM potassium phosphate; used as PF6 salt
T2 construct: gene p2o; C-terminal His6 tag kept, pET21-d(+), E. coli BL21(DE3), IMAC

LsP2Ox = biological target: T3, LsP2Ox (Lyophyllum shimeji, UniProt Q75ZP8); experiment: absorbance at […] nm; assay type: biochemical; details: apparent; electron acceptor, 100 mM D-glucose, oxygen removed with nitrogen, pH 6.5, 30°C, 50 mM potassium phosphate; used as PF6 salt
T3 construct: gene p2ox; full-length cDNA (ORF 1857 bp, 619 residues), C-terminal His6 tag kept, pET21a(+), E. coli Rosetta 2; purified by AIEX and preparative native PAGE; subunit 68,488 Da

O=C1C=CC(=O)C=C1 = experiment: purified protein; details: apparent, electron acceptor, 100 mM D-glucose, oxygen removed with nitrogen, pH 6.5, 30°C, 50 mM potassium phosphate
[1] = test system: O=C1C(Cl)=CC(=Nc2ccc(O)cc2)C=C1Cl; experiment: purified protein; details: apparent, electron acceptor, 100 mM D-glucose, oxygen removed with nitrogen, pH 6.5, 30°C, 50 mM potassium phosphate
purified protein [2] = substrate: O=C1C=CC(=O)C=C1; experiment: purified protein; assay type: biochemical, Lyophyllum shimeji; details: apparent, electron acceptor, 100 mM D-glucose, oxygen removed with nitrogen, pH 6.5, 30°C, 50 mM potassium phosphate
purified protein [3] = substrate: O=C1C(Cl)=CC(=Nc2ccc(O)cc2)C=C1Cl; experiment: purified protein; assay type: biochemical, Lyophyllum shimeji; details: apparent, electron acceptor, 100 mM D-glucose, oxygen removed with nitrogen, pH 6.5, 30°C, 50 mM potassium phosphate

In the case of `C1=CCC=C1.C1=CCC=C1.[Fe+3]` [ferrocenium ion], the Km (PcP2Ox) is reported as 330 µM, the Km (TmP2Ox) is reported as 507 µM and the Km (LsP2Ox) is reported as 187 µM.

TmP2Ox (Trametes ochracea) was tested, and the Km (O=C1C=CC(=O)C=C1) was 253 µM, the kcat (O=C1C=CC(=O)C=C1) was 225 s⁻¹ and the kcat/Km (O=C1C=CC(=O)C=C1) was 895000 M⁻¹ s⁻¹. For the same molecule, the Km [1] was 413 µM, the kcat [1] was 42 s⁻¹ and the kcat/Km [1] was 102000 M⁻¹ s⁻¹.

B1: LsP2Ox (Lyophyllum shimeji) (protein)
chain: MSLSTEQMLRDYPRSMQINGQIPKNAIHETYGNDGVDVFIAGSGPIGATYAKLCVEAGLRVVMVEIGAADSFYAVNAEEGTAVPYVPGYHKKNEIEFQKDIDRFVNVIKGALQQVSVPVRNQNVPTLDPGAWSAPPGSSAISNGKNPHQREFENLSAEAVTRGVGGMSTHWTCSTPRIHPPMESLPGIGRPKLSNDPAEDDKEWNELYSEAERLIGTSTKEFDESIRHTLVLRSLQDAYKDRQRIFRPLPLACHRLKNAPEYVEWHSAENLFHSIYNDDKQKKLFTLLTNHRCTRLALTGGYEKKIGAAEVRNLLATRNPSSQLDSYIMAKVYVLASGAIGNPQILYNSGFSGLQVTPRNDSLIPNLGRYITEQPMAFCQIVLRQEFVDSVRDDPYGLPWWKEAVAQHIAKNPTDALPIPFRDPEPQVTTPFTEEHPWHTQIHRDAFSYGAVGPEVDSRVIVDLRWFGATDPEANNLLVFQNDVQDGYSMPQPTFRYRPSTASNVRARKMMADMCEVASNLGGYLPTSPPQFMDPGLALHLAGTTRIGFDKATTVADNNSLVWDFANLYVAGNGTIRTGFGENPTLTSMCHAIKSARSIINTLKGGTDGKNTGEHRNL
notes: full-length cDNA (ORF 1857 bp, 619 residues), C-terminal His6 tag kept, pET21a(+), E. coli Rosetta 2; purified by AIEX and preparative native PAGE; subunit 68,488 Da
Work on B1 yielded a Km (purified protein [2]) of 33 µM, a kcat (purified protein [2]) of 92.3 s⁻¹ and a kcat/Km (purified protein [2]) of 2.76e+06 M⁻¹ s⁻¹. It also gave a Km (purified protein [3]) of 187 µM, a kcat (purified protein [3]) of 67.3 s⁻¹ and a kcat/Km (purified protein [3]) of 361000 M⁻¹ s⁻¹.
